For 1 molecule, Kd results are on record in publication PMC6717526 (Cellular signalling, 2019).

This test concerns the target bovine arrestin-3^1−393 (truncated arrestin-3, residues 1–393), purified (bovine, UniProt P32120 1-393). Kind of test: MST.

bovine arrestin-3^1−393 (truncated arrestin-3, residues 1–393), purified, sequence (P32120 1-393): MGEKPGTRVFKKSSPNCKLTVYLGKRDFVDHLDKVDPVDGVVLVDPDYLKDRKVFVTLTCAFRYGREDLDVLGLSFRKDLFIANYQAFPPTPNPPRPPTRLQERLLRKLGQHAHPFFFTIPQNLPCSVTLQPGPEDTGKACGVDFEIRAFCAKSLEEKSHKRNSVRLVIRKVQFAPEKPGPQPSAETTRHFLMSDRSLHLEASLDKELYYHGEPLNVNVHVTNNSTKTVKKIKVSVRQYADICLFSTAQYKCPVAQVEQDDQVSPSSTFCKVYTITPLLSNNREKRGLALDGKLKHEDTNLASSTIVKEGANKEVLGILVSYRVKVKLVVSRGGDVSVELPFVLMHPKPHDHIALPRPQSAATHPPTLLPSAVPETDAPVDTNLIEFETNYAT

B1: human His-MELK^1−326,T167E (maternal embryonic leucine-zipper kinase, kinase domain and flanking ubiquitin-associated domain, residues 1–326, T167E) (domain or fragment, UniProt Q14680 1-326, looked up)
chain: MKDYDELLKYYELHETIGTGGFAKVKLACHILTGEMVAIKIMDKNTLGSDLPRIKTEIEALKNLRHQHICQLYHVLETANKIFMVLEYCPGGELFDYIISQDRLSEEETRVVFRQIVSAVAYVHSQGYAHRDLKPENLLFDEYHKLKLIDFGLCAKPKGNKDYHLQECCGSLAYAAPELIQGKSYLGSEADVWSMGILLYVLMCGFLPFDDDNVMALYKKIMRGKYDVPKWLSPSSILLLQQMLQVDPKKRISMKNLLNHPWIMQDYNYPVEWQSKNPFIHLDDDCVTELSVHHRNNRQTMEDLISLWQYDHLTATYLLLLAKKAR
modifications: RED-tris-NTA dye on the His tag (in the MST experiment only)
As usually defined, the Kd is the constant that tells how readily two partners part at equilibrium. Low readings indicate a tighter complex, high ones a looser complex. Regarding B1, the Kd was 130 ± 35 nM.
